Experimental data as given in patent US20240116985A1 (published 2024).
Starred links: 1 amine or outer side, 2 acyl side, 3 side chain; linkers in the order of their positions; H or OH if unused. Positions of bridges follow the written chain, without caps; N, C: chain ends. Non-standard residues stand in square brackets, D forms with d. Primed or numbered codes have the meaning given here. B5(29) = 2-amino-2-(pent-4-en-1-yl)hept-6-enoic acid (2,2-bis(4-pentenyl)glycine), stitching residue bearing both staples, C=CCCCC(CCCC=C)(N[*:1])C(=O)[*:2]; B5(17) = 2,2-bis(4-pentenyl)glycine = 2-amino-2-(pent-4-en-1-yl)hept-6-enoic acid, stitching residue, C=CCCCC(CCCC=C)(N[*:1])C(=O)[*:2]; B5(4) = 2,2-bis(4-pentenyl)glycine = 2-amino-2-(pent-4-en-1-yl)hept-6-enoic acid (stitching residue), C=CCCCC(CCCC=C)(N[*:1])C(=O)[*:2]; B5(6) = 2-amino-2-(pent-4-en-1-yl)hept-6-enoic acid (bis(4-pentenyl)glycine), stitching residue, C=CCCCC(CCCC=C)(N[*:1])C(=O)[*:2]; Phe(3,4-F2) = N[C@@H](Cc1ccc(F)c(F)c1)C(=O)O; Phe(3-F) = N[C@@H](Cc1cccc(F)c1)C(=O)O; Phe(4-F) = N[C@@H](Cc1ccc(F)cc1)C(=O)O; Bta = N[C@@H](Cc1csc2ccccc12)C(=O)O; αAllylPro = C=CC[C@@]1(C(=O)O)CCCN1; 2Pal = N[C@@H](Cc1ccccn1)C(=O)O; 3Pal = N[C@@H](Cc1cccnc1)C(=O)O; S8 = C=CCCCCCC[C@](C)(N)C(=O)O

B1: I-265 (peptide)
peptide: Ac-[αAllylPro]DA[B5(4)]DDAA[Phe(3-F)]V[S8]FWQ-NH2
modifications: staple 1-4, 4-11; not fully specified; printed as Ac-PL3-Asp-Ala-B5-Asp-Asp-Ala-Ala-3FF-Val-S8-Phe-Trp-Gln-NH2
notes: Stapled (stitched) peptide; also called Ac-PL3-Asp-Ala-B5-Asp-Asp-Ala-Ala-3FF-Val-S8-Phe-Trp-Gln-NH2
B2: I-289 (peptide)
peptide: XDAXDDAAFVXFW
modifications: not fully specified; N-terminal Ac; PL3 at 1; B5 at 4; S8 at 11; C-terminal NH2; staples PL3(1)-B5(4) and B5(4)-S8(11) by olefin metathesis
notes: Stapled (stitched) peptide; also called Ac-PL3-Asp-Ala-B5-Asp-Asp-Ala-Ala-Phe-Val-S8-Phe-Trp-NH2
B3: I-270 (peptide)
peptide: Ac-[αAllylPro]DA[B5(17)]D[2Pal]AAFV[S8]FWQ-NH2
modifications: staple 1-4, 4-11
notes: Stapled (stitched) peptide; also called Ac-PL3-Asp-Ala-B5-Asp-2PyrA-Ala-Ala-Phe-Val-S8-Phe-Trp-Gln-NH2
B4: I-271 (peptide)
peptide: Ac-[αAllylPro]DA[B5(17)]D[3Pal]AAFV[S8]FWQ-NH2
modifications: staple 1-4, 4-11
notes: Stapled (stitched) peptide; also called Ac-PL3-Asp-Ala-B5-Asp-3PyrA-Ala-Ala-Phe-Val-S8-Phe-Trp-Gln-NH2
B5: I-290 (peptide)
peptide: XDAXDDAAFVXFW
modifications: not fully specified; N-terminal Ac; PL3 at 1; B5 at 4; S8 at 11; C-terminal NH2; staples PL3(1)-B5(4) and B5(4)-S8(11) by olefin metathesis
notes: as for B2
B6: I-276 (peptide)
peptide: XDAXDDAAFVXXWQ
modifications: not fully specified; N-terminal Ac; PL3 at 1; B5 at 4; S8 at 11; 1NapA at 12; C-terminal NH2; staples PL3(1)-B5(4) and B5(4)-S8(11) by olefin metathesis
notes: Stapled (stitched) peptide; also called Ac-PL3-Asp-Ala-B5-Asp-Asp-Ala-Ala-Phe-Val-S8-1NapA-Trp-Gln-NH2
B7: I-266 (peptide)
peptide: Ac-[αAllylPro]DA[B5(4)]DDAA[Phe(4-F)]V[S8]FWQ-NH2
modifications: staple 1-4, 4-11
notes: Stapled (stitched) peptide; also called Ac-PL3-Asp-Ala-B5-Asp-Asp-Ala-Ala-4FF-Val-S8-Phe-Trp-Gln-NH2
B8: I-267 (peptide)
peptide: Ac-[αAllylPro]DA[B5(17)]DDAA[Phe(3,4-F2)]V[S8]FWQ-NH2
modifications: staple 1-4, 4-11
notes: Stapled (stitched) peptide; also called Ac-PL3-Asp-Ala-B5-Asp-Asp-Ala-Ala-34FF-Val-S8-Phe-Trp-Gln-NH2
B9: I-275 (peptide)
peptide: XDAXDDAAFVXXWQ
modifications: not fully specified; N-terminal Ac; PL3 at 1; B5 at 4; S8 at 11; 1NapA at 12; C-terminal NH2; staples PL3(1)-B5(4) and B5(4)-S8(11) by olefin metathesis
notes: as for B6
B10: I-494 (peptide)
peptide: XDAXDEAAFQXFXQ
modifications: not fully specified; Ac-PL3-Asp-Ala-B5-Asp-Glu-Ala-Ala-Phe-Gln-S8-Phe-BztA-DGIn-NH2 (so in the source); read as D-Gln at position 14); N-terminal acetyl, C-terminal amide; stapled PL3-B5 and B5-S8
notes: Stapled peptide composition
B11: I-477 (peptide)
peptide: Ac-[αAllylPro]DT[B5(29)]DEAAFQ[S8]F[Bta]Q-NH2
modifications: staple 1-4, 4-11
notes: Stapled peptide composition
B12: I-493 (peptide)
peptide: XDAXDEAAFQXFXS
modifications: not fully specified; Ac-PL3-Asp-Ala-B5-Asp-Glu-Ala-Ala-Phe-Gln-S8-Phe-BztA-DSer-NH2; N-terminal acetyl, C-terminal amide; D-Ser at position 14; stapled PL3-B5 and B5-S8
notes: Stapled peptide composition
B13: I-491 (peptide)
peptide: XDAXDEAAFQXFXS
modifications: not fully specified; Ac-PL3-Asp-Ala-B5-Asp-Glu-Ala-Ala-Phe-Gln-S8-Phe-BztA-Hse-NH2; N-terminal acetyl, C-terminal amide; stapled PL3-B5 and B5-S8
notes: Stapled peptide composition
B14: I-492 (peptide)
peptide: XDAXDEAAFQXFXS
modifications: not fully specified; Ac-PL3-Asp-Ala-B5-Asp-Glu-Ala-Ala-Phe-Gln-S8-Phe-BztA-Hse-NH2; N-terminal acetyl, C-terminal amide; stapled PL3-B5 and B5-S8
notes: Stapled peptide composition
B15: I-472 (peptide)
peptide: Ac-[αAllylPro]DI[B5(6)]DEAAFN[S8]F[Bta]H-NH2
modifications: staple 1-4, 4-11
notes: Stapled peptide composition
B16: I-471 (peptide)
peptide: Ac-[αAllylPro]DI[B5(6)]DEAAFQ[S8]F[Bta]H-NH2
modifications: staple 1-4, 4-11
notes: Stapled peptide composition
B17: I-476 (peptide)
peptide: XDIXDEAAFNXFXQ
modifications: not fully specified; Ac-PL3-Asp-aIle-B5-Asp-Glu-Ala-Ala-Phe-Asn-S8-Phe-BztA-Gln-NH2; N-terminal acetyl, C-terminal amide; stapled PL3-B5 and B5-S8
notes: Stapled peptide composition
B18: I-495 (peptide)
peptide: XDIXDEAAFQXFXN
modifications: not fully specified; Ac-PL3-Asp-Ile-B5-Asp-Glu-Ala-Ala-Phe-Gln-S8-Phe-BztA-Asn-NH2; N-terminal acetyl, C-terminal amide; stapled PL3-B5 and B5-S8
notes: Stapled peptide composition
B19: I-478 (peptide)
peptide: XDAXDEAAFNXFXH
modifications: not fully specified; Ac-PL3-Asp-Ala-B5-Asp-Glu-Ala-Ala-Phe-Asn-S8-Phe-BztA-1MeH-NH2; N-terminal acetyl, C-terminal amide; stapled PL3-B5 and B5-S8
notes: Stapled peptide composition
B20: I-479 (peptide)
peptide: XDAXDEAAFNXFXH
modifications: not fully specified; Ac-PL3-Asp-Ala-B5-Asp-Glu-Ala-Ala-Phe-Asn-S8-Phe-BztA-1MeH-NH2; N-terminal acetyl, C-terminal amide; stapled PL3-B5 and B5-S8
notes: Stapled peptide composition
B21: I-470 (peptide)
peptide: Ac-[αAllylPro]DI[B5(6)]DDAAFN[S8]F[Bta]H-NH2
modifications: staple 1-4, 4-11; also: separate HPLC peak/isomer composition from I-469
notes: Stapled peptide composition
B22: I-475 (peptide)
peptide: XDIXDEAAFNXFXQ
modifications: not fully specified; Ac-PL3-Asp-aIle-B5-Asp-Glu-Ala-Ala-Phe-Asn-S8-Phe-BztA-Gln-NH2; N-terminal acetyl, C-terminal amide; stapled PL3-B5 and B5-S8
notes: Stapled peptide composition

molecular target: T1, full-length beta-Catenin (Uniprot ID P35222) (Homo sapiens (Human), UniProt P35222 1-781); assay: fluorescence polarization competition; full-length beta-catenin with 5FAM-labelled TCF4 10-53 peptide as competitor
T1 construct: The assay protocols call it full-length; also called B-Catenin; bCat
T1 sequence: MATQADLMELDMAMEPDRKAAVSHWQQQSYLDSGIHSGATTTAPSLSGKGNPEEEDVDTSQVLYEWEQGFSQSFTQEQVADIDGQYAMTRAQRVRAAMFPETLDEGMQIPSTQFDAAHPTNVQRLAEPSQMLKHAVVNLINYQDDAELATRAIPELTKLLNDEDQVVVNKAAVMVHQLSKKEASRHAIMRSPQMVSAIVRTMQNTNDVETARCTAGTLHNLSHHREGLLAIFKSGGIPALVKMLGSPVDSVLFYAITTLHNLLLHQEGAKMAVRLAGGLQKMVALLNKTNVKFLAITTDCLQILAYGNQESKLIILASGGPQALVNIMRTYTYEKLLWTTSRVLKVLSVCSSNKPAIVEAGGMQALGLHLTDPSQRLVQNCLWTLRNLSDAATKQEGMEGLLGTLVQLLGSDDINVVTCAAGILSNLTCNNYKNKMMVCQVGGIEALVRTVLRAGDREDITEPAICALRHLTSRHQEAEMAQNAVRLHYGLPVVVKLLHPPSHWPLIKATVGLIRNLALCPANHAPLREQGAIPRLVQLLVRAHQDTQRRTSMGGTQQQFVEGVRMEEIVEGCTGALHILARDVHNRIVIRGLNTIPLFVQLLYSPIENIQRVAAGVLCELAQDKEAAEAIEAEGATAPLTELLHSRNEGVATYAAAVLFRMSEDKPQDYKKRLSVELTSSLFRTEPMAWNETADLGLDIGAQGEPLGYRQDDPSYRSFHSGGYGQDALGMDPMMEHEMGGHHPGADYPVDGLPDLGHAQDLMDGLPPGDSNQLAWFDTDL
Description: (§1) The plate was incubated protected from light for 60 minutes at 20° C. prior to read. Reads were performed on a CLARIOstar plate reader (BMG Labtech) in duplicate, and data were fitted to a 1:1 binding model with hill slope using an in-house script. All provided concentrations are final concentrations.

Binder	EC50 [µM]
B1	3.76
B2	5
B3	5
B4	5
B5	3.29
B6	3.43
B7	5
B8	5
B9	5

molecular target: T2, full-length beta-Catenin (Uniprot ID P35222) (Homo sapiens (Human), UniProt P35222 1-781); assay: fluorescence polarization competition; displacement of 5FAM-TCF4(10-53) from full-length beta-catenin
T2 construct: Used full-length in the fluorescence polarization probe solution (10 nM); also called bCat; B-Catenin
T2 sequence: T1 sequence
Description: as §1

Binder	EC50 [nM]
B10	82
B11	119
B12	88
B13	153
B14	53
B15	62
B16	52
B17	48
B18	181
B19	71
B20	27
B21	11
B22	102

molecular target: T1, full-length beta-Catenin (Uniprot ID …); assay: AlphaScreen competition; full-length beta-catenin with biotin-labelled TCF4 10-53 peptide as competitor
Description: as §1, with “Equal volume of the titrated peptide was added to the” for “The”, “and” for “was”, “incubated for 15 minutes at 20° C. Then 4 uL of donor and 4 uL acceptor beads at 10 ug/mL were added to the plate, for a 16 uL reaction pool and” for “incubated”

Binder	EC50 [nM]
B1	194
B2	626
B3	835
B4	788
B5	303
B6	329
B7	318
B8	620
B9	859
